Reference: paper PMC7407834 (2020)
Ends that are not written are not given here.

Experiments:
phage clone 1 peptide = biological target: T1, phage clone 1 peptide (phage-displayed); experiment: ELISA
T1 chain: GHIPTCLTPMCR

USPIO-LRPep2 = biological target: T2, USPIO-LRPep2 (not fully specified (N-terminus, bridges); cysteine pairing not given here; also: grafted to USPIO nanoparticle); experiment: ELISA
T2 chain: HPWCCGLRLDLR

B1: LDLR 22-788 (protein)
chain: not shown
With B1 the Kd (phage clone 1 peptide) was 0.136 nM and the Kd (USPIO-LRPep2) was 72.5 nM.
